Columns and labels:
Assay in all cases: negative-stain EM
[1] = target: H1 GCN4 (NL09 HA, GCN4-trimerized) (influenza A virus A/Netherlands/602/2009(H1N1))
[2] = target: H1/1 GCN4 (NL09 head, PR8 stalk, GCN4-trimerized) (influenza A virus A/Puerto Rico/8/34/Mount Sinai(H1N1) | influenza A virus A/Netherlands/602/2009(H1N1))
[3] = target: H2/1 GCN4 (SG57 head, PR8 stalk, GCN4-trimerized) (influenza A virus A/Puerto Rico/8/34/Mount Sinai(H1N1) | influenza A virus A/Singapore/1/1957(H2N2))
[4] = target: H5/1 GCN4 (IN05 head, PR8 stalk, GCN4-trimerized) (influenza A virus A/Puerto Rico/8/34/Mount Sinai(H1N1) | influenza A virus A/Indonesia/5/2005(H5N1))

CR9114 Fab
stoichiometry N (Fabs per trimer) [1]: 3 | stoichiometry N (Fabs per trimer) [2]: 3 | stoichiometry N (Fabs per trimer) [3]: 3 | stoichiometry N (Fabs per trimer) [4]: 3

H1/1 GCN4 (NL09 head, PR8 stalk, GCN4-trimerized) (domain or fragment)
stoichiometry N [2]: 3
